Laboratory results: the nanobody polyreactivity screen of Harvey et al. (2022)

test: yeast display, Sf9 membrane polyspecificity reagent, FACS + sequencing; frameworks hold sequencing errors
Method in brief: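 Galactose induction of a Saccharomyces cerevisiae BJ5465 synthetic nanobody display library ran 36–48 hours. The cells were then stained for 1 hour at 4 °C with 10% biotinylated, detergent-solubilized Sf9 membrane reagent, pulled down on streptavidin microbeads and FACS-sorted into low and high (top ~1%) gates on expression and reagent-binding fluorescence. Labels for polyreactivity follow the gate of origin.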

| Sequence | polyreactivity (PSR sort gate) |
| --- | --- |
| QVQIVESGGGLVQAGGSLRLSCAASGLIIPFYAMGWYRQAPGKERELVAAISWSAGSTYYADSVKGRFTISRDNAKNTVYLQMNSLKPEDTAGYYCAATAYYYYDYDYWGQGTQVTVSS | low polyreactivity |
| QVQIVESGGGLVQAGGSLRLSCAASGLTFRSYTIGWYRHAPGKERELVAAISSGGSTYYADSVKGRFTISRDNAKNTVYLQMNSRKPEDTAVYFCAAPRGHGKYYSWGQGTQVTVSS | high polyreactivity |
| QVQIVESGGGLVQAGGSLRLSCAASGNTFPAYAMGWYRQAPGKERELVATISWSTGSTNYADSVKGRFTISRDNANNTVYLQMNSLKPEDTAVYYCNKRYPTDQMYYWGQGTLVTVSS | low polyreactivity |
| QVQIVESGGGLVQAGGSLRLSCAASGRIFAYNAMGWYRQAPGKERELVVAISWTGGRTSYADSVKGRFTISCDNAKNTVYLQMNSLKPEDTAVYYCNARYRYRLRGYDYWGQGTQVTVSS | high polyreactivity |
| QVQIVESGGGLVQAGGSLRLSCAASGRIFDDYAMGWYRQAPGKEREFVAAISTSGGSTYYADSVMGRFTISRDNAKNTVYLKMNSLKPEDTAVYYCNKYGYYGWFGSRYWHDYWGQGTQVTVAS | high polyreactivity |
| QVQIVESGGGLVQAGGSLRLSCAASGRIFERYAMGWYRQAPGKERELVAGISISGGGTYYADSVKGRFTISRDNAKNTVYLQMNSLKPEHNAVYYCAGTFPREEYGYWGEGTQVTVSS | low polyreactivity |
| QVQIVESGGGLVQAGGSLRLSCAASGRIFGYNAMGWYRQAPGKERELVATITVGGGSTYYADSVKGRFTISRDNAKNTVYLQMNSLKPEDTAVYYCAADSGYQPVLHRGYYRFNYWGQGTQVTVSS | low polyreactivity |
| QVQIVESGGGLVQAGGSLRLSCAASGRIFKLYAMGWSRQAPGKERELVAAITRRGGSTSYADSVKGRFTISRDNAKNTVYLQMNSLKPEDTAVYYCAASYTGRTVVQGYEYWGQGTQVTVSS | high polyreactivity |
| QVQIVESGGGLVQAGGSLRLSCAASGRIFVYNAMGWYRQAPGKERELVAAISSTGSTNYADSVKGRFTISRDNAKNTVYLQMNSLKPEDTAVYYCAAVYYFYGFSGYYGQYDYWGQGSQVTVSS | low polyreactivity |
| QVQIVESGGGLVQAGGSLRLSCAASGRIFYGYAMGWYRQAPGKEREFVARINVSGTSTFYADSVKGRFTISRDNAKNTVYLQMNSLKPEDTAVYYCAARGLPSNYYYYVHGYIMDYWGQGTQVTVSS | low polyreactivity |
| QVQIVESGGGLVQAGGSLRLSCAASGRILEGYAMGWYRQAPGKERELVAAISFSTTTTYYADSVKGRFTISRDNAKNTVYLQMNSLKPEDTAVYYCAADSQQSDYDYWGQGTQVTVSS | high polyreactivity |
| QVQIVESGGGLVQAGGSLRLSCAASGRSFYKYAMGWYRQAPGKERELVAAISKSGGRTYYADSVKGRFTISRDNAKNTVYLQMNSLKPEDTAVYYCAAEPFIPDQSRYYYWGQGTQVTVSS | high polyreactivity |
| QVQIVESGGGLVQAGGSLRLSCAASGRTFNGYAMGWYRQAPGKERELVARITYRGGGTYYADSVKGRFTISRDNAKNTVYLQMNSLKPEDTAVYYCNAVYHSSGRMGYWGQGTQVTLSS | high polyreactivity |
| QVQIVESGGGLVQAGGSLRLSCAASGRTFRTYAMGWSRPAPGKEREMVAAIRSNAGSTYYADSVKGRFTISRDNAKNTVYLQMHSLKPEDTAVYYCAKSYRSSRRYNYWGQGTQVTVSS | high polyreactivity |
| QVQIVESGGGLVQAGGSLRLSCAASGRTFTHYAMGWYRQAPGKERELVAAISSGGGTYYADSVKGRFTIARDNAKKTVYLQMNSLKPEDTAVYYCNADYSNYLDPFRTYGYWGQGTQVTVSS | low polyreactivity |
| QVQIVESGGGLVQAGGSLRLSCAASGRTLRYYSMGWYRQAPGKERELVAAISGSGGRTYYADSVKGRFTISRDNAKNTVYLQMNSLKPVDTAVYYCAKRYYRTAGDMDYWGLGTQVTVSS | high polyreactivity |
| QVQIVESGGGLVQAGGSLRLSCAASGSIFGPYVMGWYRQAPGKERELVAAISKSRGSTYYADSVKGRFTISRDNAKNTVYLQMNSLKPEDTAVYYCATDYLGGGKRYYYWGQGTQVTVSS | high polyreactivity |
| QVQIVESGGGLVQAGGSLRLSCAASGSIFGYAMGWYRPAPGKERELVAAISFSGVSTYYADSVKGRFTISRDNAKNTVYLQMNSLKPEDTAVYYCNAYSDGDEDYWGQGTQVTVSS | low polyreactivity |
| QVQIVESGGGLVQAGGSLRLSCAASGSIFQFYAMGWSRQAPGKERELVAVITTSGVSTYYADSVKGRFTISRDNAKYTVYLQMNSLKPEDTAVYYCAADDYYLAGDYWGQGTQVTVSS | low polyreactivity |
| QVQIVESGGGLVQAGGSLRLSCAASGSIFVVNAMGWYRQAPRKERELVAAIDWSGDTTYYADSEKGRFTISRDYAKNTVYFQMNSLKPEDTAVYYCAAEYEFHEYDYWGQGTQVTVSS | high polyreactivity |
| QVQIVESGGGLVQAGGSLRLSCAASGSTFARNAMGWYRQAPGKEREFVASIRWGGVSTYYADSVKGRFTISRDNAKNTVYLQMNSLKPEDTAVYYCATGRKNAAQRWGYYYWGQGTQVTVSS | high polyreactivity |

| Sequence | polyreactivity (PSR sort gate) |
| --- | --- |
| QVQIVESGGGLVQAGGSLRLSCAASGSTFGGNAMGWYRQAPGKERDLVAVISKRGGSKYYADSVKGRFTISRDNAKNTVYLQMNSLKPEDTAVYYCAATYSRYWSPTYDYWGQGTQVNVSS | high polyreactivity |
| QVQIVESGGGLVQAGGSLRLSCAASGSTFGRYAMGWYRQAPGKEREMVAAISASGGSTYYADSVKGRFTISRDYAKNTVYVQMNSLKPEDTAVYYCAALIDVITCQYDYWGHGTQVTVSS | high polyreactivity |
| QVQIVESGGGLVQAGGSLRLSCAASGSTFRRYVMGWYRQAPGKERELVAAISWSGTSTNYADSLKGRFTISRDNAKNTVYLHMNSLKPEDTAVYYCATQSLYYRWGLDYCGQGTQVTVSS | high polyreactivity |
| QVQIVESGGGLVQAGGSLRLSCAASGSTFTFYAMGSYRQAPGKERELVASITQSTGSTHYADSVKGRFTISRDNEKNTVFLQMNSLNPEDTAVYYCKAQKIVYYLVTLFPYYYWGQGSQVTVSS | low polyreactivity |
| QVQIVESGGGLVQAGGSLRLSCAASGYIFPYYAMGWYRQAPGKERELVAGITTDGSSTYYADSVKGRFTISRDNAKNTVYLQMNSLNPEDTAVYYFYVYPGYTWGWYDYWGQGTQVTVSS | low polyreactivity |
| QVQIVESGGGLVQAGGSLRLSCAASGYIFSVYAMGWYRQAPGKERELVAAITFRTGRTYYADSVKWRFTISRDNAKNTVYLQMNSLKPEDTAVSYCAADGYWTTFYNLYGYWGQGTQVTVSS | high polyreactivity |
| QVQIVESGGGLVQAGGSLRLSCADSGRIFYLYDMGWYRQAPGKERELVATISCSGGSTYYADSVMGRFTISRDNAKNTVYLQMNSLKPEDTALYYCAAVSVSSWYDYWGQGTQVTVSS | low polyreactivity |
| QVQIVESGGGLVQAGGSLRLSCASSGRIFHRYAMGWYRQAPGKERELVAAISYSTARTYYADSVKGRFTISRDNAKNTVYLQMNSLKPEDTAVYYCAAKDERRSFGMGYWGQGTQVTVSS | high polyreactivity |
| QVQIVESGGGLVQAGGSLRLSCPASGGIFTKNAMGWYRQAPGKERELVAGISRTGGNTYYADSVKGRFTISRDNAKNNVYLQMKSLKPEDTAVYYCKALYGGPHRLRYDYWGQGTQVTVSS | low polyreactivity |
| QVQIVESGGGLVQAGGSLRLSGAASGLIFKYYDMGWSRQAPGKERELVASISRSGGRTYYADSVMGRFTISRDNAMNTVYLQMNSLKPEDTAVYYCNADTWLYWDGDDYWGQGTQVTVSS | high polyreactivity |
| QVQIVESGGGLVQAGGSLRLTCAASGFTFGPYAMGWYRQEPGKERELVAAITVNGSSTYADSVKGRFTISRDNAKNTVVLQMNSLKPEDTAVYYCAATVYPGGPYGGDSDYWGQGTQVTVSS | low polyreactivity |
| QVQIVESGGGLVQAGGSLRLTCAASGLTFTGNAMGWYIQAPGKERELVAAISWSGGSKYYADSVKGRYTISRDNAKNTVYLQMNSLQPEDTAVYYCADPDARYDYWGQGTQVTVSS | high polyreactivity |
| QVQIVESGGGLVQAGGTLRISCAASGFTLYYYAMGWSRQAPGKERELVAAITSSGTSTYYADSVKGRFTISRDNAKNTVYLQMNSLKPEDTAVYYCAAVSKIYHYRAVRLDDYWGQGTQVSVSS | low polyreactivity |
| QVQIVESGGGLVQAGRSLRLSCAASGFIFFPYVMGWYRPAPVKERELVARITSGGGSTYYADSVKGRFSISRDNAKNTVYLEMYSLKPEDTAVYYCAARFRFPPSYDYWGQCTQVTVSS | high polyreactivity |
| QVQIVESGGGLVQAGRSLRLSCAASGIIFRRYAMGWYRQAPGKETELVAAISSRGGSTYYADSVKGRFTISRDNAKNTVYLQMNSLKPEDTAVYYCAKGFSGTGGSGDFGYWGQGTQVTVSS | high polyreactivity |
| QVQIVESGGGLVQAGRSLRLSCAASGRTFYRNAMGWYRQAPGKERELVAAITWRTGNTYFADSVKGRFTISRDNAKNTVYLQMNSLKQEDTAVYYCNRVPYYGHPFRVSGDYWGQCTQVTVSS | low polyreactivity |
| QVQIVESGGGLVQAGRSLSLSCAASGYTFLPNVMGWYRQAPGKERELVAAIYSRGGRTYYADSVKGRFTISRDNAKNTVYLQMNSLKPEDTAVYYCAAYTRYTTGSAGIYRDDYWGQGTQVTVSS | high polyreactivity |
| QVQIVESGGGLVQAGVSLRLSCAASGRTSDGYAMGWYRQAPGKESELVAGITEGGGDTYYADSVKGRFTISRDNAKNTVYLQMNSLKPEDTAVYYCNAVEGSRLPYDYWGQGTQVTVSS | low polyreactivity |
| QVQIVESGGGLVQPGCSLRLSCAASGRIFYVYAMGWYRQAPGTEWELVASITNGGRTNYADSVKGRFTISRDNAKNTFYLQMNSLKPEDTAVYYCATAASNYLDYVGKYRYDYWVQGTQVTVSS | low polyreactivity |
| QVQIVESGGGLVQSGGSLRLSCAASGIIFSSNAMGWYRQAPGKERELVAAISRRGGSTYYADSVKGRFTISRDKAKNTVYLQMNSLKPEDTAVYYFIALLYNVAGYDYWGQGTQVTVSS | high polyreactivity |
